Experimental data taken from patent US20160168210A1, “DERIVATIVES OF COLLAGEN-BINDING HAIRPIN PEPTIDES” (NATIONAL RESEARCH COUNCIL OF CANADA, priority 2012, published 2016).
“Also recorded” adds a separate entry of the source. Where no end group is shown, it is not given here.

Key:
[1] = In vivo biodistribution by fluorescence imaging in nude mice; parameters: species or system mouse; conditions: for fluorescence biodistribution: ~0.25 mg/kg
Description: (§1) Immune-compromised nude mice (20-30 g) and normal Sprague-Dawley rats (250-310 g; Charles River Laboratories, St-Constant, QC, Canada) were acclimated for at least 3 days prior to the start of the study. Animals were housed in microisolator cages and were kept on a 12-hr light/dark cycle with constant temperature and humidity. Food and water were provided ad libitum. Stock solutions of various agents and peptides of this invention were diluted in saline (0.9% sodium chloride) prior to use. Saline formulations of FL4247 were prepared in such a way that similar dose levels were achieved based on the body weight of the experimental animals used for the study (i.e. in mg/kg).
(§2) Of the different methods available, imaging with fluorescently-labeled test compounds is particularly useful for assessing the in vivo biodistribution in real time with live animals. Therefore, the biodistribution of FL4247 was followed over time in two nude mice each for two routes of administration: 1) intravenous (I.V.); and 2) intraperitoneal (I.P.). Another imaging experiment was carried out using a Sprague-Darley rat (Charles River Laboratories, St-Constant, QC, Canada) through a tail-vein (I.V.) administration of an FL4247 solution.
The I.V. injection route depicted similar results in both studies even though the imaging sequence parameters were different (study 1=1 image/2 minutes over 30 minutes; study 2=1 image/5 minutes over 60 minutes).
Similar results were obtained in two studies involving the I.P. route of injection. Different imaging parameters were again used (study 1=1 image/2 minutes over 60 minutes; study 2=1 image/5 minutes over 90 minutes). The I.P. injection of FL4247 led to the accumulation of the compound at the level of the head within 5 minutes. […] The distribution of FL4247 over the entire body is complete within 30 minutes accompanied by a slow accumulation of fluorescence in the bladder region.

[2] = test system: abdominal vena cava injured by FeCl3
Description: The application of ferric chloride on venous and arterial vessels was therefore the method used to produce the inflamed vasculature in the animal model. The carotid artery (arterial model) and the abdominal vena cava (venous model) were the chosen vessels for the imaging experiments with injured blood vessels undergong thrombosis.
The FeCl3 rat venous model of thrombosis was generated as described (Wang 2005) with some modifications. Briefly, rats were anesthetized with a 2.5% isoflurane/oxygen mixture and placed on a heat source (35-37° C.). The vena cava was then exposed via a midline incision and the region between the renal and iliolumbar veins was isolated. One minute after drug administration, a piece of filter paper (Gel Blot Paper, GB003, Whatman, Piscataway, N.J., USA; 7 mm diameter) saturated with 10% FeCl3 (EMD Chemicals Inc., Gibbstown, N.J., USA) was placed on the exposed surface of the vena cava and incubated for 3.5 minutes. During the application of FeCl3, the abdominal region was covered with aluminum foil. At the end of the incubation period, the filter paper was removed and the exposed viscera covered with a saline-soaked gauze.
In these imaging experiments, there were also a 30-minute waiting time after introduction of FeCl3 to the exposed vena cava to ensure the development of substantial vascular injury and the deposition of a thrombus.

rat-tail collagen type I = rat-tail collagen type I (Rattus norvegicus, UniProt P02454+P02466); experiment: Retention of fluorescent peptide by collagen hydrogels, fluorescence imaging; type: binding; parameters: used together with rat-tail collagen (type I); from tissue; host or cells: rat tail; conditions: pre-formed or pre-mixed collagen hydrogel disks
Excerpt: Peptide P4247 conjugated to a fluorescent probe, i.e. FL4247 (Table 5), was therefore used together with rat-tail collagen (type I) to assess the binding capacity of CBLH peptides to collagen and to illustrate the potential applications of collagen hydrogels formulated with compounds of this invention. The fluorescent probe, HiLyte Fluor750 (AnaSpec, California) was selected with a maximum absorption at an optical wavelength of 750 nm and with a maximum fluorescence emission at 800 nm. Therefore, the intensity of fluorescence emissions would also be optimal for in vivo imaging of tissue locations with a differential enrichment of the injected fluorescent compound (see Examples 8-10). […] For this first experiment, FL4247 in a hydrogel solution were loaded onto the pre-formed collagen hydrogels and molecular diffusion off FL4247 was followed by fluorescence imaging (FIG. 8A, left image). […] Such FL4247-collagen hydrogel preparations (FIG. 8A, right) were then submerged in a large volume of buffer solutions (e.g. the PBS) and the degree of FL4247 retention by the hydrogels were followed by fluorescence imaging (FIG. 8B). […] However, the observed fluorescence intensity was still restricted close to the center of the hydrogel disks 30 minutes after the FL4247 solution was applied (FIG. 8A, left). […]

[3] = In vivo biodistribution by fluorescence imaging in a normal Sprague-Dawley rat
Description: as §1, §2
The biodistribution was also assessed using one rat in which FL4247 was injected intravenously (I.V.) through the tail vein. To illustrate the capacity for image contrast, only 10% (one tenth or 1/10) of FL4247 was used with the normal rat (FIG. 9C) as compared to the dosage of FL4247 used for imaging vascular injury in venous thrombosis (see FIG. 10). […] Then the fluorescence became more intense in both kidneys for the next 25 minutes and finally the fluorescence appeared in the bladder for the remainder of the experiment time. Although the head was not imaged during this experiment, ex vivo imaging was carried out at the end of the live-animal protocol with the dissected brain, heart, liver and both kidneys. A small amount of fluorescence was detected in the liver and a much stronger signal (about 10 times) was present in both kidneys.

[4] = test system: fibrotic tissues of the lung; experiment: Fluorescence imaging in bleomycin-induced mouse model of pulmonary fibrosis; type: in vivo
Excerpt: Tissue localization of the representative compound FL4247 containing a collagen-binding hairpin peptide was further examined using a bleomycin-induced mouse model of pulmonary fibrosis. […] This is accompanied by fluorescence localization into generally inflamed tissues in the oral cavities of these mice, which are induced through either mechanical or contact damages. It can therefore be concluded that FL4247 has an affinity for inflamed/fibrosing tissues in vivo, very likely due to specific binding of the collagen-responsive hairpin moiety to newly-secreted collagen enriched in these tissue environments.
Specifically, pulmonary instillation of bleomysin was used to initiate pulmonary fibrosis in a mouse model using immune-compromised nude mice. The objective was to determine if the fluorescent FL4247 compound would localize in fibrotic tissues of the lung induced by bleomycin. […] The imaging data thus obtained confirm that: 1) the fluorescence detected in vivo in the thorax region was indeed coming from the lung and from the heart; and 2) since no fluorescence was detected in the lung and heart of the control mouse, the signal detected in the fibrotic mouse injected with FL4247 is very likely a result of different lung tissues induced by fibrosis. […]

rat-tail collagen type I, sequence (P02466 86-1125): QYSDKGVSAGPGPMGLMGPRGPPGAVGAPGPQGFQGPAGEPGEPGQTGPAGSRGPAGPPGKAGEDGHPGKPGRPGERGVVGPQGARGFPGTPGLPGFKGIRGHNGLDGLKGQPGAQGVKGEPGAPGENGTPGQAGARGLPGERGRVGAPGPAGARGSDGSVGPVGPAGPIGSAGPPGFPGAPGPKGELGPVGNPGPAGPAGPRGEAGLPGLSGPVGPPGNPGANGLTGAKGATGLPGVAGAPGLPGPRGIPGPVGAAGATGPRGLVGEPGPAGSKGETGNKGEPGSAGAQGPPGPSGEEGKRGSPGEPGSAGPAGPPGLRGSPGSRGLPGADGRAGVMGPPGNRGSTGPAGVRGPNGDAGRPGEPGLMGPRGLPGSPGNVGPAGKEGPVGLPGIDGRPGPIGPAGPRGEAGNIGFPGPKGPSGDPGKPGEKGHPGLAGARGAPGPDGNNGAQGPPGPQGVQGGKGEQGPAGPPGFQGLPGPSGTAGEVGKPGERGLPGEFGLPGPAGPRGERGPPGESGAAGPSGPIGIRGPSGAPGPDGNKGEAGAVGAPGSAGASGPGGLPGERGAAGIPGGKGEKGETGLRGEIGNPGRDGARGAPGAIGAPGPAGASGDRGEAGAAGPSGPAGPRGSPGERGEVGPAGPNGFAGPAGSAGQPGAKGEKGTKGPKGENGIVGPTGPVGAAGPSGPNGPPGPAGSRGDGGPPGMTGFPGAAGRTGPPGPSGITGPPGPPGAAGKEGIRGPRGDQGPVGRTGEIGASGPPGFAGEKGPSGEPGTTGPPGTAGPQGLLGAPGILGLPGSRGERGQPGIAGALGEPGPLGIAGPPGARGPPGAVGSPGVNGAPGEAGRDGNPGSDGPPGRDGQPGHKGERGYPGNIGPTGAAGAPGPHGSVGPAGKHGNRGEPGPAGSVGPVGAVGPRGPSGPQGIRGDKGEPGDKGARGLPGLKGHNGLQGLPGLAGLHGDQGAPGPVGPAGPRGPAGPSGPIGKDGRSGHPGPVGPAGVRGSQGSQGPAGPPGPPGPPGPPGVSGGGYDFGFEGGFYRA
rat-tail collagen type I, sequence (P02454 152-1207): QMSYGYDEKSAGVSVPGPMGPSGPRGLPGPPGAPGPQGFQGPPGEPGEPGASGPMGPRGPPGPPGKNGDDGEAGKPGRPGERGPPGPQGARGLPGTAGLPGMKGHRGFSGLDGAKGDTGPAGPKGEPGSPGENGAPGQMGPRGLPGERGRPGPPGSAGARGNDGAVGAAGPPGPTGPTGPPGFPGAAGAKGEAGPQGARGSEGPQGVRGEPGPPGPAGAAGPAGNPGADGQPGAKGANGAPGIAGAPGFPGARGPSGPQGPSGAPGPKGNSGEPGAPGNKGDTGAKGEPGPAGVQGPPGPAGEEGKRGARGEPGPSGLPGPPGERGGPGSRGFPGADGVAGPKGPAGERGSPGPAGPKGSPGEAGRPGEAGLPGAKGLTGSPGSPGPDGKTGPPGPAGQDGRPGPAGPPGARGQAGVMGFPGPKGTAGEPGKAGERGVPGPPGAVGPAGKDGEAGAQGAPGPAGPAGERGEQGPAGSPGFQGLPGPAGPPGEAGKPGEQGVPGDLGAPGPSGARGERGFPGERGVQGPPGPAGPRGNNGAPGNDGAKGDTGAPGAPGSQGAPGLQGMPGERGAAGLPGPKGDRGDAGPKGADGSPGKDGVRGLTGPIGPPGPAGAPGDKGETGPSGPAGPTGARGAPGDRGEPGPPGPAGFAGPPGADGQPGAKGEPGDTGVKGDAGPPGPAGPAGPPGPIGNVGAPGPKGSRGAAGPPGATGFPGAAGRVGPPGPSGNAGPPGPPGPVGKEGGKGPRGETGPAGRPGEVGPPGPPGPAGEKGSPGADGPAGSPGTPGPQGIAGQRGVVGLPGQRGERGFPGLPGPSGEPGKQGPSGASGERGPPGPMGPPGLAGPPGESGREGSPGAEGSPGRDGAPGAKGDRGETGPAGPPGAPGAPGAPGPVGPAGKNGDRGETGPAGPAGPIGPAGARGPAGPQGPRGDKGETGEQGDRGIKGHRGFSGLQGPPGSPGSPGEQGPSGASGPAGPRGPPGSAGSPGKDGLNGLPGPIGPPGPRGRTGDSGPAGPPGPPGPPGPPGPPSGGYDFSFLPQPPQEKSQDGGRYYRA

For “IRFTDGEWTWDDATKTWTWTEGGC-Fluor750 (not fully specified (C-terminus); printed as IRFTDGEWTWDDATKTWTWTEGGC-Fluor750; also: HiLyte Fluor750 conjugate) [FL4247, peptide P4247 conjugated to fluorescent probe HiLyte Fluor750]”, the “time to accumulation at the level of the head” value ([1]; I.P.) was no more than 5 min, the “time to complete distribution over the entire body” value ([1]; I.P.) was no more than 30 min and the fluorescence biodistribution ([1]; I.P.) was “far inferior over time compared to the I.V. injection; also recorded: no specific local accumulation of FL4247 was noted”. For the same substance, the fluorescence biodistribution ([1]; I.V.) was “accumulated rapidly in the head region followed by a slow decrease of fluorescent intensity over time; also recorded: accumulated in the bladder; also recorded: no other organs appeared to accumulate or retain FL4247”, the “fluorescence at the injured abdominal vena cava” value ([2]; I.V. 30 minutes after FeCl3 application, ~0.2 mg/kg) was “strong fluorescence signal” and the “signal in dissected thrombus weaker than along injured vasculature” value ([2]; ex vivo imaging, I.V. 30 minutes after FeCl3) was “about 3 times”. The clearance ([2]; rat venous thrombosis model, I.V.) was “rapid clearance of FL4247 via the kidneys to the bladder”, the “diffusion in / retention by collagen hydrogels (fluorescence)” value (rat-tail collagen type I) was “significantly retarded the diffusion of FL4247 in the gel matrix; also recorded: could resist outward diffusion into buffer solutions” and the “fluorescence biodistribution (live and ex vivo imaging)” value ([3]; I.V. tail vein, 0.025 mg/kg) was “differential accumulation in the head region, in the kidneys and in the bladder; also recorded: Nothing was detected in the brain and heart organs”. For the same substance, the “ex vivo signal in both kidneys relative to liver” value ([3]; I.V., end of live-animal protocol) was “about 10 times”, the “decrease of liver fluorescence” value ([3]; I.V., within 5 minutes) was 10 times and the “mice with I.V. injection showing marked fluorescence in the lung” value ([4]; I.V.) was “two out of three mice”. The “fluorescence retention in fibrotic lung” value ([4]; tail vein injection, ~0.5 mg/kg) was “high degree of FL4247 fluorescence was retained in the area of the lung”.
